These results are taken from patent publication US20080057063A1 (published 2008).

B1: sc 254 (antibody, V domains shown)
VH: QVQLQESGPGLVKPSQTLSLTCTVSGGSISSGGYYWSWIRQHPGKGLEWIGYIYYSGSTYYNPSLKSRVTISVDTSKNQFSLKLSSVTAADTAMYYCARYRGPAAGRGDFYYFGMDVWGQGTTVTVSS
VL: DIVMTQTPLSLSVTPGQPASIFCKSSQSLLNSDGKTYLCWYLQKPGQPPQLLIYEVSNRFSGVPDRFSGSGSGTDFTLKISRVEAEDVGVYYCMQGIQLPWAFFGQGTKVEIK
B2: sc 374 (antibody, V domains shown)
VH: QVQLVESGGGVVQPGRSLRLSCAASGFTFSSYGMHWVRQAPGKGLEWVAVIWYDGSNKYYADSVKGRFTISRDNSKNTLYLQMNSLRAEDTAVYYCARTEGIAARLYYYYGMDVWGQGTTVTVSS
VL: not shown
B3: sc 161 (antibody, V domains shown)
VH: EVQLVQSGAEVKKPGESLKISCKGSGYSFTSYWIGWVRQMPGKGLEWMGIIYPGDSDTRYSPSFQGQVTISADKSISTAYLQWSSLKASDTAMYYCARHGIAAAGFYYYYMDVWGQGTTVTVSS
VL: EIVLTQSPDTLSLSPGERASLSCRASQNVNRNYLVWYQQKPGQAPRLLIYGTSNRATGIPDRFSGSGSGTDFTLTISRLEPEDFAVYYCQQCGSLPFTFGPGTKVDIKR
B4: sc 97 (antibody, V domains shown)
VH: EVQLVQSGAEVKKPGESLKISCKGSGYSFTSYWIGWVRQMPGKGLEWMGIIYPGDSDTRYSPSFQGQVILSADKSISTAYLQWSSLKASDTAMYYCARHDESSGYYYVFDIWGQGTMVTVSS
VL: SYELTQPPSVSVSPGQTARITCSGDALPKKYAYWYQQKSGQAPVLVIYEDIKRPSGIPERFSGSSSGTMATLTISGAQVEDEADYYCYSTDSSGNHWVFFGGGTKLTVL
notes: also called sc 097
B5: sc 277 (antibody, V domains shown)
VH: EVQLVQSGAEVKKPGESLKISCKGSGYSFPSYWIGWVRQMPGKGLEWMGIIYPGDSDTRYSPSFQGQVTISADKSISTAYLQWSSLKASDTAMYYCARHPMEDGMDVWGQGTTVTVSS
VL: SYELTQPPSVSVSPGQTARITCSGDALPKKYAFWYQQKSGQAPVLVIYDDNKRPSGIPERFSGSSSGTMATLTITGAQVEDEADYYCYSTDSSGHHVFGGGTKLTVL
B6: sc 49 (antibody, V domains shown)
VH: QVQLQESGPGLVKPSQTLSLTCTVAGGSIRSGDYYWSWIRQHPGKGLEWIGNIYYSGSTYYNPSLKSRITISVATSRNQFSLKLTSVTAADTAVYYCARGGAITIFGVFDYWGQGTLVTVSS
VL: not shown
notes: also called sc 049
B7: sc 320 (antibody, V domains shown)
VH: EVQLVESGGGLVKPGGSLRLSCAASGYTFTNYIMHWVRQAPGKGLEWVSSISISSSYIYYADSVKGRFTISRDNAKNSLYLQMNSLRAEDTAVYYCARDPVPLERRDYYYGMDVWGQGTTVTVSS
VL: QSVLTQPPSMSAAPGQKVTISCSGSSSNIGNNYVSWYQQLPGTAPKLLIYDNNKRPSGIPDRFSGSKSGTSATLGITGLQTGDEADYYCGTWDSSLSAGVFGGGTKLTVL
B8: sc 58 (antibody, V domains shown)
VH: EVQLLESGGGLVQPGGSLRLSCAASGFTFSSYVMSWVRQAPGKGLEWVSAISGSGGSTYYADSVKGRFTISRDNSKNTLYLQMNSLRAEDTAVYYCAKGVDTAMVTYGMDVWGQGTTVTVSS
VL: SYELTQPPSVSVSPGQTARITCSGDALPKKYAYWYQQKSGQAPVLVIYDDSKRPSGIPERFSGSSSGTMATLTISGAQVEDEADYYCYSTDSSGNHRVFGGGTKLTVL
notes: also called sc 058

What is called Kd is the constant that tells how readily two partners part at equilibrium. Low readings indicate a tighter complex, high ones a looser complex.

The target in the first test is T1, soluble αVβ6 (human, UniProt P06756 31-992; P18564 22-709).
T1 construct: extracellular domain; also called soluble αVβ6 protein; soluble antigen
T1 sequence (P06756 31-992, chain 1 of 2): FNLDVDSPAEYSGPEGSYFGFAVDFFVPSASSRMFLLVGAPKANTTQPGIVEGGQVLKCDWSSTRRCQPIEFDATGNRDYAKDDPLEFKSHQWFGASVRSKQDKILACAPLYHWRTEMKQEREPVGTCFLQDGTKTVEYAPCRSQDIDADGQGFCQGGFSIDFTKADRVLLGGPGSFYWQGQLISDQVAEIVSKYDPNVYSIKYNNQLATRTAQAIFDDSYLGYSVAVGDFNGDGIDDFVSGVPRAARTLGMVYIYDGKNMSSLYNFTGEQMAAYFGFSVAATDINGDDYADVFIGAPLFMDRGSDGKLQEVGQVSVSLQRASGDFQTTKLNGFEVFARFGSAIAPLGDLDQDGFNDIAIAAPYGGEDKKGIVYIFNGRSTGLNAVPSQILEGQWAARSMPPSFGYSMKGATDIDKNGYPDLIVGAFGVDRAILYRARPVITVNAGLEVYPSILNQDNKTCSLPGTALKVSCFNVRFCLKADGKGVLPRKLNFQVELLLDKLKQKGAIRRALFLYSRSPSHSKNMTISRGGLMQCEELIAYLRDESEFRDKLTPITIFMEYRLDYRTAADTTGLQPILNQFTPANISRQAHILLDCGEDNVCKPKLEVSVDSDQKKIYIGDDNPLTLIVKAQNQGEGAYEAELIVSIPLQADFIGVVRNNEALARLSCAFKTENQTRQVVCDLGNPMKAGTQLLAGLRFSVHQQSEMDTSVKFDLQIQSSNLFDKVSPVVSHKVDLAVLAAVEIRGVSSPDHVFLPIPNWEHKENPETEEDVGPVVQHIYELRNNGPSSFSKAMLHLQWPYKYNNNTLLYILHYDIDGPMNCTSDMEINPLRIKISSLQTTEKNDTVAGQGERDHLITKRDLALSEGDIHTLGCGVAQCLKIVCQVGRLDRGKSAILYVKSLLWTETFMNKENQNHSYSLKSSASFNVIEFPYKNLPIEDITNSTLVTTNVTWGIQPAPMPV
T1 sequence (P18564 22-709, chain 2 of 2): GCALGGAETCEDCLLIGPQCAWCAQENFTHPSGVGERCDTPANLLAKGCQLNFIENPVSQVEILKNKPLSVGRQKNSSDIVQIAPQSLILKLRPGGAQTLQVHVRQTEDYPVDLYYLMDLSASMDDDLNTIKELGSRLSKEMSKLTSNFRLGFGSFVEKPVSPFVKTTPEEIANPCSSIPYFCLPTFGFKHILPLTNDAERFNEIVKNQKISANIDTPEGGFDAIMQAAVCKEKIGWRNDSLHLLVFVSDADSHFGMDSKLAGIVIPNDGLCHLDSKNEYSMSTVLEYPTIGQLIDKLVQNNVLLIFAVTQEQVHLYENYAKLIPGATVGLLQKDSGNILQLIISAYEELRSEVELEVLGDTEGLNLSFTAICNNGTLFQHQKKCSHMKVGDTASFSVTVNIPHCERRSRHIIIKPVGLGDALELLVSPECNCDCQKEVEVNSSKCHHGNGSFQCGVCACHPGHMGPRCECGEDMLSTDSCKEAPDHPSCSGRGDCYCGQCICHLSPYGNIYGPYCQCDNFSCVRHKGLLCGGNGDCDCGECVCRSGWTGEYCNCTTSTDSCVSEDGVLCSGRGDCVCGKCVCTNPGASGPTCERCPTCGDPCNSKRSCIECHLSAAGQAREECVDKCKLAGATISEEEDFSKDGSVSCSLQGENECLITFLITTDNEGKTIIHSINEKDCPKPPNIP
Kind of test: Biacore, mAb captured on anti-human IgG, soluble αVβ6 injected, 1:1 fit. (In general: SPR reads the build-up and loss of mass on a sensor chip optically.)
Description: The Biacore analysis was performed as follows. A high-density goat α human IgG antibody surface over two CM5 Biacore chips was prepared using routine amine coupling. Each mAb was diluted in degassed HBS-P running buffer containing 100 μg/ml BSA, 1 mM MgCl₂, and 1 mM CaCl₂ to a concentration of approximately 1 μg/mL. […] A 4-minute wash step at 50 μL/min followed to stabilize the mAb baseline.
A 10-minute dissociation followed each antigen injection. The antigen samples were prepared in the HBS-P running described above. All samples were randomly injected in triplicate with several mAb capture/buffer inject cycles interspersed for double referencing. […] A flow rate of 50 μL/min was used for all antigen injection cycles.
The data were then fit to a 1:1 interaction model with the inclusion of a term for mass transport using CLAMP.
On to B1, for which binding was characterised by a dissociation constant (Kd) of 34.9 nM.

In a further test the target is T2, human αV on parental A375M cells, which express αVβ3 and αVβ5, but not αVβ6 (human, UniProt P06756 31-1048).
T2 construct: whole, on cells; Two heterodimers (αVβ3, αVβ5) on one cell line; also called αVβ3 or αVβ5 integrins
T2 sequence (P06756 31-1048 A375M): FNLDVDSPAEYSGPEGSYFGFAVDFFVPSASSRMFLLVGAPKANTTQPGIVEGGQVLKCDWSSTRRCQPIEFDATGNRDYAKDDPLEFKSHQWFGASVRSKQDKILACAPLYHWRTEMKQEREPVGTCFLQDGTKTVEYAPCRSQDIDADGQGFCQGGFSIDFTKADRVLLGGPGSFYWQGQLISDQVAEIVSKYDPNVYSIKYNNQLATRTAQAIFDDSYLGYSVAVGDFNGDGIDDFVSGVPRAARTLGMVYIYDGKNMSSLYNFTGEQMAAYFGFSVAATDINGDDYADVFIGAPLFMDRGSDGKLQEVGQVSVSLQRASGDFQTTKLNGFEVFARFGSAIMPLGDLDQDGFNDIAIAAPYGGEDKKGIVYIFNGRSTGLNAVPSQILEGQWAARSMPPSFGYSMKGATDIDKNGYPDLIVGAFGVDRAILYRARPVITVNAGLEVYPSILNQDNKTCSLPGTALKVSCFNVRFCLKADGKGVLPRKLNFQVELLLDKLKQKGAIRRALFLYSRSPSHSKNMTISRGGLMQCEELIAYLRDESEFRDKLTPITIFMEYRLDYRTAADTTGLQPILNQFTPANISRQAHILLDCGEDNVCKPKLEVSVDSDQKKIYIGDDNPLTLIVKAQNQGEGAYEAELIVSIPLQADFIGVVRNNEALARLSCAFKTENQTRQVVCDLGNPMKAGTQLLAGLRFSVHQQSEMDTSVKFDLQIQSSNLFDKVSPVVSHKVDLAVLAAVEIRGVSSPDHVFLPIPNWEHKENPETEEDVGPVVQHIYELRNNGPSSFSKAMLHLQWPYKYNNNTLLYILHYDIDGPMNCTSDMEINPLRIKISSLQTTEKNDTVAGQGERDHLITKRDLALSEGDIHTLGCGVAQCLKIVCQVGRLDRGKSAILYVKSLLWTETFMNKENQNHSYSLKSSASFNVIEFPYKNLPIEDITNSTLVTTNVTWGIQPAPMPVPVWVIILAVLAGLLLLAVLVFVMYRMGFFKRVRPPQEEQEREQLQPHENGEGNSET
Description: FACS, parental A375M cells (αVβ3, αVβ5). On the technique in general: Flow cytometry measures light scatter and fluorescence of single cells or particles in a stream.
Description: For this assay, cross-reactivity was tested on the supernatants using FACS analysis on parental A375M cells, which express αVβ3 and αVβ5, but not αVβ6.
The assays were performed as follows. […] The cells were then pelleted, the supernatant discarded, and resuspended in FACS buffer and incubated for 30 minutes at 37° C. Cells were then washed twice with FACS buffer and resuspended in a final volume of 100 μL FACS buffer per well.
Approximately 100,000 cells total, comprising a 50:50 mix of CFSE-labeled A375M cells and transfected 293 cells, were used in each reaction as follows. 100 μL of CFSE-labeled A375M cells and 100 μL of 293 cells were dispensed into a V-bottom plate. The cells in the plate were pelleted at 1500 rpm for 3 minutes, and then resuspended in 100 μL FACS buffer. The pelleting step was repeated, and the FACS buffer supernatant was removed. The harvested antibody-containing supernatants, or control primary antibodies were added in a volume of 50 μL and the cells were resuspended. […] The plate was incubated on ice for 45 minutes, after which 100 μL FACS buffer was added to dilute the primary antibody. The cells were then pelleted by centrifuging at 1500 rpm for 3 minutes, and the pellet was resuspended in 100 μL FACS buffer. The pelleting step was repeated, and the FACS buffer supernatant was removed. Cells were then resuspended in the appropriate secondary antibody (5 μg/ml) with 7AAD dye (10 μg/ml), and stained on ice for 7 minutes. Then 150 μL of FACS buffer was added and the cells were pelLeted at 1500 rpm for 3 minutes, after which the cells were washed in 100 μL FACS buffer, pelleted, and then resuspended in 250 μL buffer and added to FACS tubes.
Turning to B2, the GeoMean came to 2.14.

With B3, the “% Cells Shifted” value turned out to be 11% and the GeoMean came out at 16.7.

B4: the “% Cells Shifted” value was 24% and the GeoMean is 1.84.

Regarding B5, the “% Cells Shifted” value is 23% and the GeoMean was determined as 1.86.

As for B6, the “% Cells Shifted” value worked out at 20% and the GeoMean turned out to be 1.74.

For B7, the “% Cells Shifted” value was 15% and the GeoMean was determined as 23.2.

Consider B8, for which the “% Cells Shifted” value amounted to 18% and the GeoMean is 1.78.

The target in the next test is T3, human αVβ6 integrin on cells (human, UniProt P06756 31-1048; P18564 22-788).
T3 construct: whole, on cells; Heterodimer on transfected cells (HEK 293, K562, 293T) or on αVβ6-positive tumour lines (HT29, Detroit-562); also called αVβ6 on HEK 293, K562, 293T-αVβ6, HT29, Detroit-562 cells
T3 sequence (P06756 31-1048, chain 1 of 2): as the sequence (P06756 31-1048 A375M) above, with M345A counted along it
T3 sequence (P18564 22-788, chain 2 of 2): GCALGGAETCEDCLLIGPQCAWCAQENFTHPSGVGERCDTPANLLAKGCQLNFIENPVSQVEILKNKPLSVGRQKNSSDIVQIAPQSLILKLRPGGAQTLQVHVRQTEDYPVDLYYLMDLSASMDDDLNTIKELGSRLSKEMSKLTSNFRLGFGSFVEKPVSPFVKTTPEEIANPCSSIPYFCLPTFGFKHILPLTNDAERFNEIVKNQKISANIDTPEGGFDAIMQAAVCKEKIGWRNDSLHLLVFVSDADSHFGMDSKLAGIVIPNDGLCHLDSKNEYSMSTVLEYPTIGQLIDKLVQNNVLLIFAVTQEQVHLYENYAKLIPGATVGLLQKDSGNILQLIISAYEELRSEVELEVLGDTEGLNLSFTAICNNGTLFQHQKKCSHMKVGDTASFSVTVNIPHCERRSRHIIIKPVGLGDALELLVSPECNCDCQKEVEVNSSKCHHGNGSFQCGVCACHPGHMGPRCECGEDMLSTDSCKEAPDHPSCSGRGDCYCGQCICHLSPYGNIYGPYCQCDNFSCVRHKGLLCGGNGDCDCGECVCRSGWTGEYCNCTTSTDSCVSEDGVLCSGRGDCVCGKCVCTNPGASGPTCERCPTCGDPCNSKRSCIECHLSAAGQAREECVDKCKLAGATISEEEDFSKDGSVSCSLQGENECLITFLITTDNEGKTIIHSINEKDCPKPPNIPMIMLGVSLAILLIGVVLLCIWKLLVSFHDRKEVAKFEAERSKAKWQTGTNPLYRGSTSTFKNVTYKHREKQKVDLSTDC
Kind of test: FMAT, HEK 293 cells overexpressing αVβ6, supernatant.
Consider B1, for which the “FMAT Count” value is 174, the “FMAT FL1” value stood at 9180 and the “FMAT FL1 × Count” value is 1.6e+06.

Take B3: the “FMAT Count” value was determined as 23, the “FMAT FL1” value was found to be 725 and the “FMAT FL1 × Count” value was found to be 16700.

Take B5: the “FMAT Count” value was found to be 28, the “FMAT FL1” value was 382 and the “FMAT FL1 × Count” value worked out at 10700.

The target of a further test is α5β1 integrin (on K562 cells) (UniProt P08648 42-1049; P05556 21-798, limits assumed). Kind of test: cell-based or functional assay.
For B1, the “Percent Inhibition (K562 adhesion to FN9-10 peptide of fibronectin, 5 µg/ml)” value was -9%.

The target of the next test is T3, human αVβ6 integrin on cells. Kind of test: cell-based or functional assay.
In the case of B1, the “Assay 1 % Inhibition (HT29 adhesion to TGFβLAP)” value (“Assay 1 % Inhibition” for short) was 98%, the “Assay 2 % Inhibition (HT29 adhesion to TGFβLAP)” value (shortened to “Assay 2 % Inhibition”) stood at 106% and the “Average % Inhibition (HT29 adhesion to TGFβLAP)” value (“Average % Inhibition” below) amounted to 102%.

On to B3, for which the “Assay 1 % Inhibition” value came out at 98%, the “Assay 2 % Inhibition” value amounted to 106% and the “Average % Inhibition” value was found to be 102%.

Turning to B5, the “Assay 1 % Inhibition” value is 98%, the “Assay 2 % Inhibition” value was found to be 101% and the “Average % Inhibition” value came to 100%.

For the molecule B8, the “Assay 1 % Inhibition” value was determined as 77%, the “Assay 2 % Inhibition” value turned out to be 46% and the “Average % Inhibition” value was determined as 62%.

For a further test, the target named is α4β1 integrin (on J6.77 cells) (UniProt P13612 34-1032; P05556 21-798, limits assumed). Kind of test: cell-based or functional assay.
For B1, the “Percent Inhibition (J6.77 adhesion to CS-1 peptide of fibronectin, 5 ug/ml)” value worked out at 0%.

As to B3, the “Percent Inhibition (J6.77 adhesion to CS-1 peptide of fibronectin, 5 ug/ml)” value came to 12%.

For the molecule B4, the “Percent Inhibition (J6.77 adhesion to CS-1 peptide of fibronectin, 5 ug/ml)” value was -7%.

With B5, the “Percent Inhibition (J6.77 adhesion to CS-1 peptide of fibronectin, 5 ug/ml)” value is -17%.

For B7, the “Percent Inhibition (J6.77 adhesion to CS-1 peptide of fibronectin, 5 ug/ml)” value is -8%.

With B8, the “Percent Inhibition (J6.77 adhesion to CS-1 peptide of fibronectin, 5 ug/ml)” value is -14%.

The next test addresses T3, human αVβ6 integrin on cells. Kind of test: cell-based or functional assay. This is another data set of the same source.
As for B1, the “Estimated IC50, n = 1 (HT29 adhesion to TGFβLAP)” value is 63 ng/mL; the “Estimated IC50, n = 2 (HT29 adhesion to TGFβLAP)” value was 37 ng/mL; the “Estimated IC50, n = 3 (HT29 adhesion to TGFβLAP)” value was 37 ng/mL.

As for B3, the “Estimated IC50, n = 1 (HT29 adhesion to TGFβLAP)” value is 2410 ng/mL and the “Estimated IC50, n = 2 (HT29 adhesion to TGFβLAP)” value is 137 ng/mL.

For B5, the “Estimated IC50, n = 1 (HT29 adhesion to TGFβLAP)” value was 1460 ng/mL; the “Estimated IC50, n = 2 (HT29 adhesion to TGFβLAP)” value is 540 ng/mL; the “Estimated IC50, n = 3 (HT29 adhesion to TGFβLAP)” value is 720 ng/mL.

In the case of B8, the “Estimated IC50, n = 1 (HT29 adhesion to TGFβLAP)” value was 4060 ng/mL; the “Estimated IC50, n = 2 (HT29 adhesion to TGFβLAP)” value was 2030 ng/mL; the “Estimated IC50, n = 3 (HT29 adhesion to TGFβLAP)” value is 3260 ng/mL.

The target of a further test is T4, cynomolgus αVβ6 on cells (cynomolgus, UniProt A0A2K5WCD3 31-1048; A0A2K5TZ36 22-787).
T4 construct: whole, on cells; also called macaque αVβ6; Mac AVB6
Kind of test: FACS, HEK-293 transfected with cynomolgus αV and β6.
Description: Cross-reactivity of the antibody-containing supernatants to macaque αVβ6 was tested on the supernatants using FACS analysis on HEK-293 cells transiently transfected with cynomolgus αV and cynomolgus β6.
HEK-293 cells were transiently transfected with cynomolgus αV and cynomolgus β6. After 48 hours, the cells were collected and resuspended in FACS buffer to reach a final concentration of approximately 50,000 cells in 100 μL.
Approximately 100,000 cells total, comprising a 50:50 mix of CFSE-labeled A375M cells and transfected 293 cells, were used in each reaction as follows. 100 μL of CFSE-labeled A375M cells and 100 μL of 293 cells were dispensed into a V-bottom plate. The cells in the plate were pelleted at 1500 rpm for 3 minutes, and then resuspended in 100 μL FACS buffer. The pelleting step was repeated, and the FACS buffer supernatant was removed. The harvested antibody-containing supernatants, or control primary antibodies were added in a volume of 50 μL and the cells were resuspended. […] The plate was incubated on ice for 45 minutes, after which 100 μL FACS buffer was added to dilute the primary antibody. The cells were then pelleted by centrifuging at 1500 rpm for 3 minutes, and the pellet was resuspended in 100 μL FACS buffer. The pelleting step was repeated, and the FACS buffer supernatant was removed. Cells were then resuspended in the appropriate secondary antibody (5 μg/ml) with 7AAD dye (10 μg/ml), and stained on ice for 7 minutes. Then 150 μL of FACS buffer was added and the cells were pelLeted at 1500 rpm for 3 minutes, after which the cells were washed in 100 μL FACS buffer, pelleted, and then resuspended in 250 μL buffer and added to FACS tubes. Samples were analyzed on a high throughput FACS machine and analyzed using Cell Quest Pro software.
B2 returned a GeoMean of 61.8.

The molecule B1 showed a GeoMean of 78.5.

On to B3, for which the “% Cells Shifted” value was found to be 14% and the GeoMean was 33.

On to B5, for which the “% Cells Shifted” value worked out at 35% and the GeoMean was determined as 33.4.
